Test results taken from patent US12194082B2, “Compositions and methods for treatment of homocystinuria” (THE REGENTS OF THE UNIVERSITY OF COLORADO, priority 2016, dated 2025).
Where “and” joins values, the source holds several entries; their conditions need not be identical. Equal values may be shown once. Read-outs that look alike come from different tables or passages of the source.

How the values were obtained:
[1] = cynomolgus monkey, in vivo
Protocol: (§1) The pharmacokinetic (PK) parameters were calculated using a non-compartmental curve stripping model which resolves a curve into a series of exponential terms corresponding to the absorption, distribution and elimination phases occurring during the time course of the enzyme in the blood. The curve stripping approach assumes that the disposition phases of the drug follow apparent first-order kinetics, which is evidenced by the linearity in the terminal portion of a semi-log plot. These calculations were made using a modeling program called PK Solutions 2.0 (Summit Solutions, Montrose, CO) using the mean plasma enzyme activity for each route of administration. The bioavailability was calculated by dividing the area under the curve (AUC) for the SC or IP route by the AUC observed after IV administration.
For the single dose PK study, three experimental groups of 4 (n=2M+2F) monkeys each were used to conduct the experiments. The first group received 2 mg/kg 20NHS PEG-htCBS C15S via IV injection. Blood was collected at 0, 0.083, 0.16, 0.25, 0.5, 1, 2, 4, 8, 24, 72, 120, and 192 hours post IV injection. The second and third groups received either 2 mg/kg or 6 mg/kg 20NHS PEG-htCBS C15S via SC injection. Blood was collected at 0, 1, 2, 4, 8, 24, 48, 72, 96, 120, 192, 240, and 336 hours post SC injection.

Hcy, Cth, Cys = experiment: Plasma metabolites in KO mice of the DEXA study; assay type: in vivo
Protocol: In 20NHS PEG-htCBS C15S-treated KO mice, the plasma levels of Hcy, Cth, and Cys were measured biweekly over the course of the study and are shown in FIG. 16F. […] The level of Cys (top line) normalized with the treatment from less than 100 μM at day […] to about 200 μM at day 45 and sustained over the course of the study. The level of Cth (bottom line) oscillated around 50 μM throughout the duration of the study.
Plasma metabolites were determined using the same mice/groups as described above. The end-point levels of metabolites Hcy, Cth, Cys, and Met were determined 24 hours after the last injection to the 20NHS PEG-htCBS C15S-treated KO mice (right bar for each metabolite) and compared with untreated healthy +/− (left bar) and affected −/− KO mice (middle bar), as shown in FIG. 16G. Table 20 provides the P-values used to determine significance for the differences in metabolite levels in the treated group compared to the two control groups.

[2] = rat, in vivo, sc
Protocol: (§2) CBS activity was determined by a radioisotope assay with C^14-labeled serine as a substrate. Ten μl (total 490 ng) of pure htCBS in dilution buffer (0.1 M Tris-HCl pH=8.6, 1 mM DTT, 10 μM PLP, 0.5 mg/ml BSA) or 10 μl of plasma were added to 85 μl of reaction mixture containing 0.1 M Tris-HCl pH=8.6, 10 mM L-serine, 0.5 mM PLP, 0.5 mg/ml BSA and 0.3 μCi (for pure enzyme) or 0.45 μCi (for plasma) of L-[C^14(U)]-Serine. Samples were incubated for 5 min at 37° C. and reaction was initiated by addition of 5 μl of 0.2 M Hcy (10 mM final concentration). Following 30 min of incubation at 37° C., a 20 μl aliquot of the assay mixture was applied onto a grade 3 CHR Whatman (NJ, USA) paper. Assay initiation and sampling of the resulting mixture were staggered so that each reaction time was 30 minutes. Descending paper chromatography was used to isolate the radioactive product (Cth) from a labeled substrate (Ser). The C^14-cystathionine formed in the reaction was separated from C^14-serine by an overnight descending paper chromatography in 2-propanol/formic acid/H2O (75:5.7:18.9 v/v). Radioactivity in the area of the marker cystathionine (detected by staining the marker lane with ninhydrin) was determined by cutting the chromatogram into strips that were submerged in 5 ml of Opti-fluor scintillation cocktail (PerkinElmer, MA, USA) and counted in a Beckman LS-3801 scintillation counter. An enzyme-free sample was used as a blank to monitor the background radioactivity that was then subtracted from each sample. For pure enzyme, specific activity values are expressed as enzyme units (the amount of enzyme that produces 1 μmol of cystathionine/hour) per mg of CBS, and for plasma samples as units per μl plasma.
as §1
(§3) In order to assess the pharmacokinetics of 20NHS PEG-htCBS C15S in rats, wild-type Sprague Dawley rats were injected with a single dose of 20NHS PEG-htCBS C15S through intra-vascular (IV) or sub-cutaneous (SC) routes. The design of a third (repeated dose) PK study (groups 7-9) was adjusted to allow extraction of data after the first dose and thus their combination with a single dose PK study (groups 1-6).
(§4) To further evaluate rats as a species for conducting long-term toxicity studies, the pharmacokinetics of 20NHS PEG-htCBS C15S was determined in three groups of Sprague Dawley rats receiving a total of 9 SC injections every 48 hours of either 4 mg/kg (low), 8 mg/kg (mid), or 24 mg/kg (high) 20NHS PEG-htCBS C15S. […] The experiment was conducted for a length of 24 days.

Hcy, Cys = experiment: Plasma metabolites in the I278T facial alopecia study; assay type: in vivo, I278T mice; settings: 3 times per week, 24 hours after injection
Protocol: Plasma metabolites homocysteine, cystathionine and cysteine were determined by stable-isotope-dilution liquid chromatography mass spectrometry as previously described in (Allen et al., 1993, Metabolism, 42: 1448-1460). Measurements of total non-protein bound homocysteine and other aminothiols as well as of amino acids in tissue were performed as described in (Maclean et al., 2010b. Mol. Genet. Metab. 101, 153-162). Metabolites were determined by stable-isotope-dilution liquid chromatography mass spectrometry.
The second group (n=3; 2 males, 1 female) was continuously injected with 7.5 mg/kg of 200MA0B PEG-htCBS C15S administered subcutaneously from 3 W of age until 41 weeks of age. Weight was initially monitored weekly. Physical look was recorded before the experiment and was monitored weekly or bi-weekly after the initial 6 W injection regimen. Metabolite levels were checked before the experiment and 24 hours after the last injection of initial 6 W injection regiment and then followed weekly or bi-weekly.
The I278T mice, which were at least 120D (W17) old and had visible, fully developed facial alopecia, were split into 2 groups. […] Metabolite levels were determined prior to the treatment initiation and measured during the study 24 hours after the injection, and weight and physical look were initially monitored weekly, and later bi-weekly.

[3] = Pharmacokinetics of 20NHS PEG-htCBS C15S in rats; settings: for AUC/dose corrected to 80% bioavailability / Cmax/dose corrected to 80% bioavailability / tmax: SC
Protocol: as §2, §1, §3, §4

## 20NHS PEG-htCBS C15S: htCBS C15S PEGylated with ME-200GS PEG (20 kDa linear NHS ester-activated PEG)
[1]; iv, 2 mg/kg
  AUC0-t/dose: 2971 ± 78 mU-h/μl/(mg/kg)
[1]; sc
  AUC/dose: 2744 (mU-h/mL)/(mg/kg)
  cmax/dose: 20 (mU/μL)/(mg/kg)
  elimination half-life (T1/2): 73 h
[1]; sc, 2 mg/kg
  AUC0-t/dose: 2761 ± 160 mU-h/μl/(mg/kg)
  cmax/dose: 20.4 ± 1.0 mU/μl/(mg/kg)
  t1/2-A: 7.9 ± 1.0 h
  t1/2-E: 72.9 ± 1.1 h
[1]; sc, 6 mg/kg
  AUC0-t/dose: 2727 ± 119 mU-h/μl/(mg/kg)
  cmax/dose: 19.2 ± 1.3 mU/μl/(mg/kg)
  t1/2-A: 9.7 ± 1.0 h
  t1/2-E: 72.8 ± 1.7 h
Hcy, Cth, Cys; during treatment, from about 180 μM
  plasma Hcy: about 90 μM
Hcy, Cth, Cys; during treatment, from less than 100 μM
  plasma Cys: about 200 μM
Hcy, Cth, Cys; throughout the study
  plasma Cth: around 50 μM
[2]
  elimination half-life (T1/2): 44.5 h
Hcy, Cys
  Hcy and Cys change vs 400MA PEG-htCBS C15S: decrease Hcy levels and increase Cys levels more substantially
[3]; 9 SC injections every 48 hours, 4, 8 or 24 mg/kg
  plasma CBS activity on repeated dosing: substantial decline in peak CBS activities
[3]; Rat/Female
  AUC/dose corrected to 80% bioavailability: 1233 (mU-h/mL)/(mg/kg)
  Cmax/dose corrected to 80% bioavailability: 16 (mU/μL)/(mg/kg)
  tmax: 29 h
[3]; Rat/Male
  AUC/dose corrected to 80% bioavailability: 1452 (mU-h/mL)/(mg/kg)
  Cmax/dose corrected to 80% bioavailability: 17 (mU/μL)/(mg/kg)
  tmax: 35 h
[3]; females, 4 mg/kg IV
  AUC0−t (obs area): 6165 mU-h/μl
  Bioavailability: 100%
  MRT (area): 45.5 h
  cp0: 186.2 mU/μl
[3]; females, 8 mg/kg SC
  AUC0−t (obs area): 4505 mU-h/μl
  Bioavailability: 36.5%
  MRT (area): 76.8 h
  cmax: 58.2 mU/μl
  tmax (obs): 24 h
[3]; females, 24 mg/kg SC
  AUC0−t (obs area): 13135 mU-h/μl
  Bioavailability: 35.5%
  MRT (area): 79.8 h
  cmax: 166.3 mU/μl
  tmax (obs): 48 h
[3]; male rats, across doses
  bioavailability (F %) after SC administration: 19-21% and 20%
[3]; males, 4 mg/kg IV
  AUC0−t (obs area): 7231 mU-h/μl
  Bioavailability: 100%
  MRT (area): 52.9 h
  cp0: 182.1 mU/μl
[3]; males, 8 mg/kg SC
  AUC0−t (obs area): 2703 mU-h/μl
  Bioavailability: 18.7%
  MRT (area): 65.6 h
  cmax: 32.7 mU/μl
  tmax (obs): 48 h
[3]; males, 24 mg/kg SC
  AUC0−t (obs area): 9269 mU-h/μl
  Bioavailability: 21.3%
  MRT (area): 66.1 h
  cmax: 110.0 mU/μl
  tmax (obs): 38 h
